According to paper PMC12447514, “Modulation of Amyloid‑β Aggregation by Surface Proteins from Pathogens Associated with Alzheimer’s Disease” (ACS Chemical Neuroscience, 2025):

Molecular target: the molecule itself
Test: SEC; HiLoad 16/600 Superdex 75 pg in PBS or 20 mM sodium phosphate, 200 μM EDTA pH 8; oligomeric state verified in Supporting Figure S2 (method not shown)

B1: Borrelia burgdorferi outer surface protein C (residues 11-191) (natural protein)
chain: ASTNPDESAKGPNLTEISKKITDSNAVVLAVKEVEALLSSIDELAKTIGKKIEANGLGNEADKNGSLLAGAYAISTLIKQKLDGLKGLEGLNKEIAEAKKCSEAFTKKLQDSNADLGKHNATDADSKEAILKTNGTKTKGAKELEELFKSVESLSKAAKEALSNSVKELTSPVVAESPKKP
notes: outer surface protein C of Borrelia burgdorferi sensu lato, UniProt P94245, residues 11-191; the N-terminal signal peptide was replaced by His-tagged polyubiquitin-B and a TEV protease cleavage site; also called OspC; Bb outer surface protein C; not shown: polyubiquitin-B with C-terminal His-tag (UniProt J3QS39), N-terminal, cleaved
B1 was tested, and the “stoichiometry N” value was 2.
